Target: zipper-mEos3.2C (split site 164E)
Test: split reporter (BiFC, NanoBiT); BiFC signal of E. coli cultures read in a plate reader with 480 nm excitation at different culture durations, normalised to OD600; zippers against mutated zippers

mEos3.2N-Zipper (split site 164E) (peptide)
complementation efficiency (intensity ratio of the specific BiFC signal by leucine zippers to the nonspecific signal via mutated leucine zippers): < 12

From PMC4109008
